Laboratory results taken from US7399833 (dated 2008).
Values joined by “and” are separate entries in the source; they are usually repeats but may differ in a detail not shown here. Equal values may be shown once.

T1: Mpl-X (the soluble extra-cellular domain of the Mpl receptor) (human, UniProt P40238 26-491, coupled to CNBr activated Sepharose resin)
T1 construct: extracellular domain; also called hu-MPL-X
T1 sequence (looked up): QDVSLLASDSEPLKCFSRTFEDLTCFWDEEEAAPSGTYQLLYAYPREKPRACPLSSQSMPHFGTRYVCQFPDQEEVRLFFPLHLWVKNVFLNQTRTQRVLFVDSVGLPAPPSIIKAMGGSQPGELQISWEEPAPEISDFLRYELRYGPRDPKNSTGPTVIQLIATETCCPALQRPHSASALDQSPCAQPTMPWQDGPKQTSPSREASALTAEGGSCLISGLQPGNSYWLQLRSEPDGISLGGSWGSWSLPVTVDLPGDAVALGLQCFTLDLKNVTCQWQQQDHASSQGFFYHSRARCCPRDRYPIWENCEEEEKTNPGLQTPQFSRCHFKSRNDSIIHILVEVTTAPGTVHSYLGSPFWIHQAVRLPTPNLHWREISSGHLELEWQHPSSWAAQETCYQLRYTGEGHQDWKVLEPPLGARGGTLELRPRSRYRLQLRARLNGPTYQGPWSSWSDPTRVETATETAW

B1: CHO-derived MGDF 1-153 (ligand)
chain: SPAPPACDLRVLSKLLRDSHVLHSRLSQCPEVHPLPTPVLLPAVDFSLGEWKTQMEETKAQDILGAVTLLLEGVMAARGQLGPTCLSSLLGQLSGQVRLLLGALQSLLGTQLPPQGRTTAHKDPNAIFLSFQHLLRGKVRFLMLVGGSTLCVR
modifications: CHO-expressed material carries O-linked carbohydrate, which the letters do not show.
notes: see the note on m1; also called r-HuMGDF 1-153 (CHO)
B2: CHO-derived MGDF 1-163 (ligand)
chain: SPAPPACDLRVLSKLLRDSHVLHSRLSQCPEVHPLPTPVLLPAVDFSLGEWKTQMEETKAQDILGAVTLLLEGVMAARGQLGPTCLSSLLGQLSGQVRLLLGALQSLLGTQLPPQGRTTAHKDPNAIFLSFQHLLRGKVRFLMLVGGSTLCVRRAPPTTAVPS
modifications: CHO-expressed material carries O-linked carbohydrate, which the letters do not show.
notes: see the note on m1; also called r-HuMGDF 1-163 (CHO)

Each molecule was assayed against full length human Mpl receptor on 32D-MPL cells (human) (UniProt P40238) (assay: cell-based or functional assay).

Molecule | In Vitro Activity (units/ml), 32D-MPL cell proliferation | Specific Activity (units/ng), 32D-MPL cell proliferation / MGDF ELISA
[Asn82, Ala83] MGDF 1-174 (ligand) | 2660 units/ml and 3080 units/ml | 443 units/ng and 655 units/ng
[Asn53, Thr55] MGDF 1-174 (ligand) | 18000 units/ml | 269 units/ng
[Asn30, Thr32] MGDF 1-174 (ligand) | 8830 units/ml | 232 units/ng
[Asn58, Thr60] MGDF 1-174 (ligand) | 4850 units/ml | 271 units/ng
[Asn92] MGDF 1-174 (ligand) | 1970 units/ml | 188 units/ng
[Asn25] MGDF 1-174 (ligand) | 636 units/ml | 344 units/ng
[Ser36, Asn38, Thr40] MGDF 1-174 (ligand) | < 10 units/ml | < 8 units/ng
[Asn86] MGDF 1-174 (ligand) | < 10 units/ml | < 22 units/ng
[Asn120, Thr122] MGDF 1-174 (ligand) | 5940 units/ml and 9690 units/ml | 291 units/ng and 288 units/ng
[Asn38, Thr40] MGDF 1-174 (ligand) | < 10 units/ml | < 8 units/ng
[Asn30, Thr32, Asn120, Thr122] MGDF 1-174 (ligand) | 6420 units/ml | 247 units/ng

What follows are molecules tested against T1, Mpl-X (the soluble extra-cellular …) (assay: Mpl-receptor affinity chromatography).

Molecule | binding result
B1 | binds
B2 | binds
